Results: the DeepSol protein solubility set

experiment: soluble on expression in E. coli; label from the status in PepcDB or PDB records

| Sequence | soluble on expression in E. coli |
| --- | --- |
| SKDIDMGKEYIIPSPGYRSDRDRSAVPGQHRDPEEPRFRRTRSLECQDALETAARVEGLSLDISVHSHLQILDEEHSKGKYHHGLSVLKPFRTTTKHQHPVDNAGLFSYMTFSWLSPLARVVHKKGELLMEDVWPLSKYESSDVNSRRLERLWQEELNEVGPDAASLRRVVWIFCRTRLILSIVCLMITQLAGFSGPNFQDGCILRSE | soluble |
| SKDVLADYKELFRQFSISDIAVWVSTPSFAGVCITEKEFNSKMLPNLESMIFIGEALSKNLTKELMSRFPNTRIINGYGPTEATVGVSVNDMTQKAIDDEK | not soluble |
| SKFGKSLSNQIEQTLPEWQDKFLSYKELKKRLKLIGSKTADRPVKRLRLDEFSVGISKEEINFIQLLEDELEKFNNFFVEKEEEYIIRLKEFRDRIAKAKDSMEKMIKIRKEIVDFHGEMVLLENYSALNYTGLVKILKKYDKRTGDLMRLPFIQKVLQQPFYTTDLLFKLVKESEAMLDQIFPANETESEIIQAELSEHKFMESLHMKSTIAALRVLKEIRSGSSTVSVFSLPPLQLNGLDETWKKIPLLEQEAK | soluble |
| SKNGLKKRKLTNPVQLDDFDGYIKDMAKDSDYKFSLQFEELKLIGLDIPHFAADLPMNRCKNRYTNILPYDFSRVRLVSMNEEEGSDYINANYIPGYNSPQEYIATQGPLPETRNDFWKMVLQQKSQIIVMLTQCNEKRRVKCDHYWPFTEDPIAYGDITVEMLSEEEHTDWVYRNFRISYADEVQDVMHFNYTAWPDHGVPTANAAESILQFVQMVRQKSVKSKGPMIIHCSAGVGRTGTFIALDWLLQHIRDHEFVDILGLVSDMRSYRMSMVQTEEQYIFIHQCVQLMWQKKKQQFCISDVIYENVSKS | soluble |
| SKREMPSMYPQAKGILSALKEKGIEMAIASRSPTSDIANTFLDKLNIKPMFVAKEIYSSWSHKTEHFQKIHTRTGVPFTAMLFFDDEDRNIKSVSKMGVTSILVGDGVTLGAFRQGLTEFTQN | not soluble |
| SKRVNSCVKSDEHVLEELETEGERQLKSLLQHQLDTSVSIEECMSKKESFAPGTMYKPFGKEAAGTMTLSQFQTLHEKDQETASLRELGLNETEILIWKSHVSGEKKTKLRATPEAIQNRLQDIEERISERQRILCLPQRFAKSKQLTRREMEIEKSLFQGADRHSFLKALYYQDEPQKKNKGDPMNNLESFYQEMIMKKRLEEFQLMRGEPFASHSLVSATSVGDSGTAESPSLLQDKGKQAAQGKGPSLHVANVIDFSPEQCWTGPKKLTQPIEFVPEDEIQRNRLSEEEIRKIPMFSSYNPGEPNKVLYLKNLSPRVTERDLVSLFARFQEKKGPPIQFRMMTGRMRGQAFITFPNKEIAWQALHLVNGYKLYGKILVIEFGKNKKQRSNLQATSLISCATGSTTEISGS | not soluble |
| SKSFNYSVSFNLSDYQGTVLKYSNPKGLIYDYYVGKKMGTIWGYTTDHIMTDPAEAKAINDSGVQNKFGGDWVVGDIKYVNLDDDPNINDGNQTLEDHGDLSIIGNDTPRYNFGFGFNADWNGIDFSMFLQGTMKRDLWLEGPVAFGLGGGQWGSNVWKNTLDCWREDGSNPDPWLPRLYLWSTSKNLQKQTRYMDTGAYCRLKNIQLGYSLPGAIINKVGLEKVRIYFSGDNLLTFSGINENFDPEAPWGGAYPISKSISFGVNVTF | not soluble |
| SLAGVSYAAPWWVSLLHRLPHFDLRWEATSSQFRPEDADYQQAASAYGNGETSDGIHRATYSLRHANRTVAGVQDRVWDTAAALNRTAEPNLQSLERQLAGRQEPLRAVQRLQTGAARSSKGSAACSIPHTWQQKRGPDDDGEEETAPGPR | soluble |
| SLAMAAGANVPLDKANVDLTDKASLQNGAKLFMNYCFACHSTQYQRYERVATDLDIPADLMKENLIFNPEAKIGDLMVNAMPPKQAANWFGAPPPDLTLVARVRGADWLYTYLRSFYVDPSRPFGVNNIVFPSVGMPHVLEELQGIPTPVYGTKMVDGEEVKVVVGTETNGTGELSEGEYDKAVGDLVNFLVYAGDP | not soluble |
| SLANLSKERQQALLKILHYIQDGGDFTEAKKMFQESFDKVDVSEITAAERELIAQGLDPRKIQYLCNVHADVFKGNIKENAANPDFATPGHPVNTLKQENVVIKSLVNDYLLPNLKKWEKDHSEQTLSKIKQALSDLATIGKHYARKETSFFPLMTKYGITAPPQVMWGVDDKIRRLIKEANNVVNENDVDPAKLRKIIDEVSHEVLEMIFKEEEIMVPMIDEVASPADWGNVKDEEKQIGYTLINPPMNWKPKEE | soluble |
| SLEKELKVITIDELKKYIRNNEEDKIEEVDVVTSATCGIMSGTAGIFHIPFNEVFKRAEEIYLNDIKGVVGICPNEFLGKVDAIFYGEVGFLFKDLVKGKVVEAKAISEGKIYKNEITIDDLPTAKMIGTRMAFKNYTAITNLSDEEVNTIFHRLPLKKGEASFSGCGMLNPLENMVIKDEKDVVGKKALLNGAEAIILGFGTRASIEKPNLMMSADMKDMDAYYLGGFVTSNGIEIYNTIAVPIKVDEHKEALKKLDKDITLPLVNIFGREIIDIGSYAEVWENVDLRPKIYQDKCKNCRECLVEKYCPTFAIKRENGKIKITEDCFGCGVCNICPYGVFKTKLGSVCGIPITCRQSDRKRALKLAKELKKKIERGEFKI | not soluble |
| SLEKLEFEDEAVEDSESGVYMRFMRSHKCYDIVPTSSKLVVFDTTLQVKKAFFALVANGVRAAPLWESKKQSFVGMLTITDFINILHRYYKSPMVQIYELEEHKIETWRELYLQETFKPLVNISPDASLFDAVYSLIKNKIHRLPVIDPISGNALYILTHKRILKFLQLFMSDMPKPAFMKQNLDELGIGTYHNIAFIHPDTPIIKALNIFVERRISALPVVDESGKVVDIYSKFDVINLAAEKTYNNLDITVTQALQHRSQYFEGVVKCNKLEILETIVDRIVRAEVHRLVVVNEADSIVGIISLSDILQALILTPAGAKQKETETE | soluble |
| SLEKSGFIVHQKFDSILQLEDFDSLDRALKESESYYQKLPSNWKTQVRKTSYHKNQMLNSLKILKKILREKNPESRKIQFQNSFLLLETKDEALGRITAYYEVIIEGRFYPEGDFIYPVLETPSDLIVKKDGNKKSVGKIINEVFVPYETREELSHTSVWKKRSKAIVYVKIVDLHLAQLEGSAFVKVPDHIPFRITYSEDNGKEYQSPAESLKGICSSLIPSDLKSCILKYPKEVEMAILKNPRYIFFKLESSAPRGSGGIELIPKRSVAMDPGIPLGIPVLISFESSVLTEKNRIVFVHDRGSQITGHGRLDYFLGTGETAEYQAGKINTQGKIFLILPKIKN | not soluble |
| SLFKVGKVSYLNTLPLFYSLEGFEVVEGVPSELVEKLRRGEIHAGIVSSVEYFFNPQDYFILSGISISSRGSVCSVKLFSNEPMEKIREVNITKASLTSRELLFYLFEKKFGFVPKESEEAQAKLLIGDEAMEQKGYKFVYDLGEEWFKLHGLPFVFALFLVKRDADISKAKFLKKEIKKSVKNFFEEGIKNIKNKEYFKNCLDYSLGGEHIKSLINFYAYLSRKFKKQVPKLKFVL | soluble |
| SLFLLDPFSGISGDMFLSAMIDFVDKEDFINTIKKVIDVEIEIKKVKKCHILANKVNIIPKCINCNANTYKDIKNVIKSSDIQEDIKITALEILKILAEAESKVHNVDVENVHFHEVGNYDTIADIVGAAYIINKLNLKNNCLYKPINVGNGFVRTEHGLLPVPAPATAEILKGLKIFFSDINEELTTPTGSAIIKYINPKLAKGAFIIKEVSYGAGDKDLNLLNALRVFRVEDIKREDIVLLETNVDDISAEILGYLYEVLDGKVRDLHFIPTYMKKNRPAYTIRAIVDRDIAEEVAKIIMRETGSLGVRIFDIERITADREFKTIKLFDESVRLKVGRVNDEIISQKPEFEDLKNIAKKYGIPLKDLYKLINISQIKN | soluble |
| SLFQIGDNIVYPMHGAGIIEAIEEKEFLEEKQQYYVIRMSISNMTVMIPTSKILSSNIRPVTDILALKHIMHIFQHGESDRLLPWKQRYKINTDKIKTGEIQEGAEVVRDLMRMKKEKALNASEKKMLDNAYEFLISELEVIKGITEKQIKSFG | soluble |
| SLGEVPSPQELIEVADAAPNAASGVLKLYRAYREQAQRLSDLSDLLAREGHETALSSTRLPIDEVRHVFENRPAYFHAIDAAAEELHKQLSTGDDLASGLRAWLQKNHGIVVRTLPVHAMPNLRRRYDRHSMRLFLSERLSQPDQLREMAMETCLLALREEIGTELEALGLKGEEARRIARFELARYAAHALMMPYGAFLAAAQRAKYDLDVLRSRFNVSFEQAANRLVSLQRPTTAAIPFFLMEIDNAGNRFRLAGAGGFPRARFGGLCPRLNIHAAFAQPGQVLVESVEMPDGDAFLTVSRTLEGPQAGFGERVRRTAVLLGCDLGQAGETVYGPAASGAAPVAIGPSCRLCERQGCLSRAEAPLTRPLGLDEMVTGLSVFDFQ | soluble |
| SLIHIAIVEDENKDRELLKEYLDRFQAEKGEPLFVHVYPDGEEFLESFSSGKFDILLLDIHMQYMNGMATAQEIRKSDENVLIIFITNLVQYAVQGYSVRAFDFIVKPVEYSVFAQKLYRATQRLNRTIHSCVRFKVLDQIVNLQLSGILYFEIVARKLFIYTDTEIYRCNDTLHSIEEKLNDGHFFRCHAGYLVNVAYVRSVGKDYAMVGSARIPVSKHRRKAFLDAIGNYLGSKEG | not soluble |
| SLIYFFMVDAVELSRKYEGKIEIYPKVPITSYNDFALIYTPGVAEVSKAIYKDPDKSFELTSRWNTIAVVTDGTRVLGLGNIGPTAAMPVMEGKSLLFKYLGGVDAIPLPINVKSADEFTNVVKALETSFGGINLEDIESPKCFYILEKLQSMLNIPVWHDDQQGTAAAILAGLINAMILTNKDPKESKVVFYGAGASNIAAARILAKYGFKYENIVMIDSKGPLYADREDVDHLMLHHKWKYELAIKTNKWEAKEIKDAFSGADAVVAASTPGPNVIKKEWISLMNKEAIVFALANPVPEIWPQDAKEAGAKIVATGRSDFPNQVNNSLIFPAIFRGVLDSRAKAITDEMTIAASEALAKYARDRGINENYIIPRMDEWEAFYEEAAAVASKAVELGLARVKKSREEFREIAKERIIRARKIMNLVISTWSPEG | soluble |
| SLKDELHKLSYLDANRILEERLTETRYFSLNSNEYKNFQTSNPNFLFAAVIDGHAGGTIADVARKSLGYYLKKELIEIGVNSKRGGCRERAIVSALKKAHLNFDNDLLNQSKDYFLNGTSKYARTGACSLSVLIDERNYYISNIGDSVGLLIKKHFYLPLNRIHNASEFNEKRKLLEEHPNEEDILVCKICTRDYKTVNNNNTYELCKTPFHLLSHHYDNCYVKGRLQPTRSFGDFHLKKKMFAYSVDGTRLFVPEPHSFPYISAEPELRVMKKHPDDQFIVLMSDGVYEFLNHAQVINVIKTYGASPERAAKELINRVLEAAAYSSGMTMKQLLNLDPSIRRNFYDDVSVVVIKLN | not soluble |
| SLNILFDIGHPKDVNVFKNVIWKLQERGHEIKIVARAKENTKRVLEEYGFEYEVCKYYKTMSGKALGIITNDIHLYNIAKKFQPDIFVSPGSPYSAHVSRLLRKPHIAFSDTEIAGLVMKLTFPFTDKIYTSSSFYLDLGPKQIRFNGYYELAYLHSNYFTPNRDVLKKYNLDEGYIILRLSALSSHHDIGAKGFTFSSEEELIDFIRELERYGRVIVSSETKQWKTISDYELKFKPGDLHDLLYYSKMCIGEGATMASEAAILGVPAIYVSNTHRGYLDELETYELAFTIQEREEALKKAKSLLEEDSLVKNSKEKREKLLKEKTDVVEFMVNAIEGSYKL | soluble |
